Reference: patent publication US11230581B2, “Peptides and combination of peptides for use in immunotherapy against ovarian cancer and other cancers” (Immatics Biotechnologies GmbH, priority 2015, dated 2022)

Target: HLA-A*02:01 (Homo sapiens, UniProt P04439, D140Y/D185E/D98H/E176V/E277Q/G131W/G231S/I119V/I121R/I166T/I218V/L300P/L318F/N151K/N90K/P208A/P217A/Q86G/Q94H/R138H/R169H/T345S)
Assay: MHC binding assay (UV-ligand exchange, β2m ELISA, peptide exchange yield)
Conditions: binding of HLA-class I restricted peptides to HLA-A*02:01, UV-ligand exchange
In short: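 Yield of stabilized complexes quantified via the β2m light chain in an ELISA (streptavidin capture, 100-fold diluted monomers, HRP anti-β2m 2 ug/ml at 37 °C, TMB, A450). The complexes come from UV-triggered replacement of a photocleavable ligand by the candidate peptide.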

Row | Substance | Peptide exchange (MHC class I binding score, peptide exchange yield)
1 | 322 (TLMTSLPAL; listed as Homo sapiens) [compound 322] | “+++” (≥50 = +++)
2 | 324 (FLYDEIEAEV; listed as Homo sapiens) [compound 324] | “+++” (≥50 = +++)
3 | 325 (FIMPATVADATAV; listed as Homo sapiens) [compound 325] | “+++” (≥50 = +++)
4 | 326 (FLPEALDFV; listed as Homo sapiens) [compound 326] | “+++” (≥50 = +++)
5 | 327 (GLAPFTEGISFV; listed as Homo sapiens) [compound 327] | “+++” (≥50 = +++)
6 | 328 (ALNDQVFEI; listed as Homo sapiens) [compound 328] | “+++” (≥50 = +++)
7 | 329 (FLVTLNNVEV; listed as Homo sapiens) [compound 329] | “++++” (≥75% = ++++)
8 | 330 (QLALKVEGV; listed as Homo sapiens) [compound 330] | “+++” (≥50 = +++)
9 | 331 (KVDTVWVNV; listed as Homo sapiens) [compound 331] | “+++” (≥50 = +++)
10 | 332 (YLISELEAA; listed as Homo sapiens) [compound 332] | “+++” (≥50 = +++)
11 | 333 (FLPDANSSV; listed as Homo sapiens) [compound 333] | “++” (≥20% = ++)
12 | 334 (TLTKVLVAL; listed as Homo sapiens) [compound 334] | “+++” (≥50 = +++)
13 | 335 (YSLSSVVTV; listed as Homo sapiens) [compound 335] | “+++” (≥50 = +++)
14 | 336 (ILLTAIVQV; listed as Homo sapiens) [compound 336] | “+++” (≥50 = +++)
15 | 337 (HLLSELEAAPYL; listed as Homo sapiens) [compound 337] | “++++” (≥75% = ++++)
16 | 339 (GLWEIENNPTVKA; listed as Homo sapiens) [compound 339] | “++++” (≥75% = ++++)
17 | 340 (ALLSMTFPL; listed as Homo sapiens) [compound 340] | “++++” (≥75% = ++++)
18 | 341 (SQIALNEKLVNL; listed as Homo sapiens) [compound 341] | “+++” (≥50 = +++)

Row | Substance | Peptide exchange (MHC class I binding score, peptide exchange yield)
19 | 342 (HIYDKVMTV; listed as Homo sapiens) [compound 342] | “+++” (≥50 = +++)
20 | 343 (SLLEVNEESTV; listed as Homo sapiens) [compound 343] | “+++” (≥50 = +++)
21 | 344 (YLQDQHLLLTV; listed as Homo sapiens) [compound 344] | “+++” (≥50 = +++)
22 | 345 (VIWKALIHL; listed as Homo sapiens) [compound 345] | “+++” (≥50 = +++)
23 | 346 (LLDSKVPSV; listed as Homo sapiens) [compound 346] | “+++” (≥50 = +++)
24 | 347 (SLFKHDPAAWEA; listed as Homo sapiens) [compound 347] | “++++” (≥75% = ++++)
25 | 348 (ILLDVKTRL; listed as Homo sapiens) [compound 348] | “++++” (≥75% = ++++)
26 | 349 (SLTEYLQNV; listed as Homo sapiens) [compound 349] | “++++” (≥75% = ++++)
27 | 350 (ALLDVTHSELTV; listed as Homo sapiens) [compound 350] | “+++” (≥50 = +++)
28 | 351 (SLIPNLRNV; listed as Homo sapiens) [compound 351] | “+++” (≥50 = +++)
29 | 352 (SLLELLHIYV; listed as Homo sapiens) [compound 352] | “+++” (≥50 = +++)
30 | 353 (YLFEMDSSL; listed as Homo sapiens) [compound 353] | “++” (≥20% = ++)
31 | 354 (LILEGVDTV; listed as Homo sapiens) [compound 354] | “++” (≥20% = ++)
32 | 355 (SIQQSIERLLV; listed as Homo sapiens) [compound 355] | “++” (≥20% = ++)
33 | 356 (KLLGKLPEL; listed as Homo sapiens) [compound 356] | “+++” (≥50 = +++)
34 | 357 (SMHDLVLQV; listed as Homo sapiens) [compound 357] | “+++” (≥50 = +++)
35 | 358 (ALDEYTSEL; listed as Homo sapiens) [compound 358] | “++++” (≥75% = ++++)
36 | 359 (YLLPESVDL; listed as Homo sapiens) [compound 359] | “+++” (≥50 = +++)

Continued, values first:

Row | Peptide exchange (MHC class I binding score, peptide exchange yield) | Substance
37 | “+++” (≥50 = +++) | 361 (ALYELEGTTV; listed as Homo sapiens) [compound 361]
38 | “+++” (≥50 = +++) | 362 (TLYGLSVLL; listed as Homo sapiens) [compound 362]
39 | “++” (≥20% = ++) | 363 (KVLDVSDLESV; listed as Homo sapiens) [compound 363]
40 | “+++” (≥50 = +++) | 364 (LLQNEQFEL; listed as Homo sapiens) [compound 364]
41 | “+++” (≥50 = +++) | 365 (YVIDQGETDVYV; listed as Homo sapiens) [compound 365]
42 | “+++” (≥50 = +++) | 366 (RLLDMGETDLML; listed as Homo sapiens) [compound 366]
43 | “+++” (≥50 = +++) | 367 (SLQNHNHQL; listed as Homo sapiens) [compound 367]
44 | “+++” (≥50 = +++) | 369 (GLFPEHLIDV; listed as Homo sapiens) [compound 369]
45 | “+++” (≥50 = +++) | 370 (SLLQDLVSV; listed as Homo sapiens) [compound 370]
46 | “++++” (≥75% = ++++) | 371 (FLQAHLHTA; listed as Homo sapiens) [compound 371]
47 | “++” (≥20% = ++) | 372 (TMLLNIPLV; listed as Homo sapiens) [compound 372]
48 | “++” (≥20% = ++) | 373 (SLLEDKGLAEV; listed as Homo sapiens) [compound 373]
49 | “++” (≥20% = ++) | 374 (FLLQQHLISA; listed as Homo sapiens) [compound 374]
50 | “++” (≥20% = ++) | 375 (SLTETIEGV; listed as Homo sapiens) [compound 375]
51 | “++” (≥20% = ++) | 376 (AMFESSQNVLL; listed as Homo sapiens) [compound 376]
52 | “++” (≥20% = ++) | 377 (FLLDSSASV; listed as Homo sapiens) [compound 377]
53 | “+++” (≥50 = +++) | 378 (ALGYFVPYV; listed as Homo sapiens) [compound 378]
54 | “++” (≥20% = ++) | 379 (IMEGTLTRV; listed as Homo sapiens) [compound 379]
55 | “++” (≥20% = ++) | 380 (TLIEDEIATI; listed as Homo sapiens) [compound 380]
56 | “++” (≥20% = ++) | 381 (FIDEAYVEV; listed as Homo sapiens) [compound 381]
57 | “++” (≥20% = ++) | 382 (ALQNYIKEA; listed as Homo sapiens) [compound 382]
58 | “+++” (≥50 = +++) | 383 (ALLELENSVTL; listed as Homo sapiens) [compound 383]
59 | “+++” (≥50 = +++) | 384 (ILFANPNIFV; listed as Homo sapiens) [compound 384]
60 | “++” (≥20% = ++) | 385 (SLLEQGLVEA; listed as Homo sapiens) [compound 385]
61 | “+++” (≥50 = +++) | 386 (ILFRYPLTI; listed as Homo sapiens) [compound 386]
62 | “++++” (≥75% = ++++) | 387 (ALFQATAEV; listed as Homo sapiens) [compound 387]
63 | “+++” (≥50 = +++) | 388 (SLTIDGIRYV; listed as Homo sapiens) [compound 388]
64 | “++” (≥20% = ++) | 389 (LLADVTHLL; listed as Homo sapiens) [compound 389]
65 | “+++” (≥50 = +++) | 390 (ALFMKQIYL; listed as Homo sapiens) [compound 390]
66 | “+++” (≥50 = +++) | 391 (YVYPQRLNFV; listed as Homo sapiens) [compound 391]
